Laboratory results: the supplement of paper PMC7877785
± gives the uncertainty stated by the source.

Experiment: self-splicing fitness, log relative to wild type (ln ratio); higher = more splicing; Tetrahymena group I intron in knt gene, E. coli kanamycin selection, DiMSum; sequences stand for … in CUCUCU…GGAGGGAAAAGUUAUCAGGCAUGCACCUGGUAGCUAGUCUUUAAACCAAUAGAUUGCAUCGGUUUAAAAGGCAAGACCGUCAAAUUGCGGGAAAGGGGUCAACAGCCGUUCAGUACCAAGUCUCAGGGGAAACUUUGAGAUGGCCUUGCAAAGGGUAUGGUAAUAAGCUGACGGACAUGGUCCUAACCACGCAGCCAAGUCCUAAGUCAACAGAUCUUCUGUUGAUAUGGAUGCAGUUCACAGACUAAAUGUCGGUCGGGGAAGAUGUAUUCUUCUCAUAAGAUAUAGUCGGACCUCUCCUUAAUGGGAGCUAGCGGAUGAAGUGAUGCAACACUGGAGCCGCUGGGAACUAAUUUGUAUGCGAAAGUAUAUUGAUUAGUUUUGGAGUACUCGUGGUCG
Procedure, shortened: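 A randomised library covering all eight P1ex-region intron nucleotides was built with the intron in the knt kanamycin-resistance gene on pET-22b(+) and held in E. coli BL21(DE3). Cells were grown overnight at 37°C or 30°C on LB agar, with or without 25 μg/mL kanamycin, plus 100 μg/mL carbenicillin, 50 μM IPTG and 0.2% rhamnose, and pooled colonies were amplicon-sequenced on an Illumina HiSeq 2500. DiMSum fitness is the error-weighted combination of wild-type-normalised replicate fold changes, kanamycin versus none.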

Sequence | self-splicing fitness (ln) (30 °C) | self-splicing fitness (ln) (37 °C)
UGACAGCAAUAUUACGCGAA | -1.32 ± 0.12 | -0.476 ± 0.14
CUGGAGCAAUAUUACGUGUA | -3.32 ± 0.32 | -1.57 ± 0.37
UGGAAGCAAUAUUACGGGGC | -3.24 ± 0.44 | -1.35 ± 0.26
GUCGAGCAAUAUUACGUCUC | -1.76 ± 0.42 | -0.346 ± 0.27
ACACAGCAAUAUUACGCGGU | -4.42 ± 0.23 | -2.89 ± 0.17
AGUAAGCAAUAUUACGGCAC | -2.04 ± 0.27 | -0.545 ± 0.2
CCGCAGCAAUAUUACGGCAG | -1.4 ± 0.081 | 0.0999 ± 0.098
CUAUAGCAAUAUUACGAAGG | -1.76 ± 0.13 | -1.72 ± 0.19
GAUGAGCAAUAUUACGUAUU | -3.83 ± 0.34 | -3.78 ± 0.36
AGUAAGCAAUAUUACGACCU | 0.329 ± 0.11 | 0.451 ± 0.14
GGCUAGCAAUAUUACGUCGC | -1.5 ± 0.28 | -0.438 ± 0.22
GUCAAGCAAUAUUACGAGUA | -3.43 ± 0.19 | -1.98 ± 0.15
UCCAAGCAAUAUUACGACAG | -3.81 ± 0.35 | -1.47 ± 0.26
GAUCAGCAAUAUUACGUGGU | -4.81 ± 0.27 | -2.15 ± 0.13
GCUAAGCAAUAUUACGGGGG | -3.45 ± 0.28 | -1.89 ± 0.22
UGUCAGCAAUAUUACGAACA | -0.481 ± 0.068 | 0.521 ± 0.086
UUCAAGCAAUAUUACGGACC | -2.45 ± 0.25 | -2.97 ± 0.21
CAUUAGCAAUAUUACGGCCU | -3.52 ± 0.18 | -2.21 ± 0.21
AACGAGCAAUAUUACGGAUA | -2.98 ± 0.22 | -1.85 ± 0.29
GCAGAGCAAUAUUACGUACG | -2.22 ± 0.45 | -1.77 ± 0.35
GAGGAGCAAUAUUACGGUUA | -2.45 ± 0.28 | -2.2 ± 0.3
GUUUAGCAAUAUUACGACAA | -2.09 ± 0.21 | -0.807 ± 0.19

Sequence | self-splicing fitness (ln) (30 °C) | self-splicing fitness (ln) (37 °C)
CAACAGCAAUAUUACGCCAG | -1.4 ± 0.11 | -0.809 ± 0.14
GUUUAGCAAUAUUACGGGAG | -1.44 ± 0.18 | -1.83 ± 0.2
AUGUAGCAAUAUUACGCUCA | -0.372 ± 0.075 | -0.2 ± 0.1
GCCGAGCAAUAUUACGUGAG | -1.23 ± 0.09 | -0.333 ± 0.12
UGGGAGCAAUAUUACGUUUC | -3.05 ± 0.23 | -1.66 ± 0.4
CCUAAGCAAUAUUACGGCGC | -3.12 ± 0.29 | -3.22 ± 0.33
UGAGAGCAAUAUUACGCAGA | -3.1 ± 0.34 | 
UCCGAGCAAUAUUACGACUG | -2.56 ± 0.34 | -1.76 ± 0.37
AUAAAGCAAUAUUACGCCCG | -1.01 ± 0.14 | -0.313 ± 0.16
AAAAAGCAAUAUUACGCAUA | -1.5 ± 0.11 | -0.715 ± 0.1
ACCAAGCAAUAUUACGUAGA | -2.66 ± 0.14 | -2.04 ± 0.16
CACAAGCAAUAUUACGACGC | -2.86 ± 0.32 | -1.17 ± 0.18
UACGAGCAAUAUUACGGCAC |  | -2.53 ± 0.41
GUGUAGCAAUAUUACGAAGU | -2.86 ± 0.34 | -1.67 ± 0.25
CCUGAGCAAUAUUACGAUCU | -4.01 ± 0.39 | 
AAACAGCAAUAUUACGUAUG | -2.03 ± 0.094 | -1.31 ± 0.11
AGCCAGCAAUAUUACGGAAA | -1.88 ± 0.3 | -1.3 ± 0.25
CGGCAGCAAUAUUACGACAA | -1.99 ± 0.1 | -2.28 ± 0.18
AACUAGCAAUAUUACGAUGC | -1.25 ± 0.12 | -2.06 ± 0.25
CUUUAGCAAUAUUACGUAAU | -2.49 ± 0.16 | -2.78 ± 0.33
CUCGAGCAAUAUUACGUGAC | -2.55 ± 0.17 | -1.73 ± 0.16
